Starred links: 1 amine or outer side, 2 acyl side, 3 side chain; linkers in the order of their positions; H or OH if unused. Non-standard residues stand in square brackets, D forms with d. Groups on a side chain read outwards from the residue. No end group written: not given here. *: point of attachment. C15 diacid = O=C(O)CCCCCCCCCCCCCC(=O)*; γGlu = O=C(O)[C@H](CCC(=O)[*:2])N[*:1]; NMeY = CN[C@@H](Cc1ccc(O)cc1)C(=O)O; AEEA = NCCOCCOCC(=O)O; Aib = CC(C)(N)C(=O)O
Assays:
[1] = target: T1, full-length human GIPR with an N-terminal FLAG tag (human, UniProt P48546 22-466); assay: cell-based or functional assay
T1 sequence (looked up): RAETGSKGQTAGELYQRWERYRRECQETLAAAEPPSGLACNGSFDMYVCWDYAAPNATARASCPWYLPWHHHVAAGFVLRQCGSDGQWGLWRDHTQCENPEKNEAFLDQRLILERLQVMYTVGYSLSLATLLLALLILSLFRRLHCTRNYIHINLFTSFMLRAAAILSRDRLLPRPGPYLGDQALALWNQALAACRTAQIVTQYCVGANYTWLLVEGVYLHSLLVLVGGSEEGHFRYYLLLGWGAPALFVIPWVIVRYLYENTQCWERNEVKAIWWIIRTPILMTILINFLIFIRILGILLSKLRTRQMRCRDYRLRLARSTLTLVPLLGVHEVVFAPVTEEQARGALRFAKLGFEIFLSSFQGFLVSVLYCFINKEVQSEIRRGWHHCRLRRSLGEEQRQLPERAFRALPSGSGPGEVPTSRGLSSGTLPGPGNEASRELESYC

[2] = target: full-length human GLP-1R with an N-terminal FLAG tag (human, UniProt P43220 24-463); assay: cell-based or functional assay

Row | Binder | Human GIPR cAMP, HEK293T EC50 [1] [nM] | Human GLP1R cAMP HEK293T EC50 [2] [nM]
1 | [NMeY][Aib]EGTFISDYSIALDRK([Gly-Gly-Gly-Gly-Gly-γGlu-C15 diacid])AQ[Aib]NFVNWLLAQSPSSGAPPPS-NH2 (N-terminus assumed; SMILES CC[C@H](C)[C@H](NC(=O)[C@H](CO)NC(=O)[C@H](Cc1ccc(O)cc1)NC(=O)[C@H](CC(=O)O)NC(=O)[C@H](CO)NC(=O)[C@@H](NC(=O)[C@H](Cc1ccccc1)NC(=O)[C@@H](NC(=O)CNC(=O)[C@H](CCC(=O)O)NC(=O)C(C)(C)NC(=O)[C@H](Cc1ccc(O)cc1)NC)[C@@H](C)O)[C@@H](C)CC)C(=O)N[C@@H](C)C(=O)N[C@@H](CC(C)C)C(=O)N[C@@H](CC(=O)O)C(=O)N[C@@H](CCCNC(=N)N)C(=O)N[C@@H](CCCCNC(=O)CNC(=O)CNC(=O)CNC(=O)CNC(=O)CNC(=O)CC[C@H](NC(=O)CCCCCCCCCCCCCC(=O)O)C(=O)O)C(=O)N[C@@H](C)C(=O)N[C@@H](CCC(N)=O)C(=O)NC(C)(C)C(=O)N[C@@H](CC(N)=O)C(=O)N[C@@H](Cc1ccccc1)C(=O)N[C@H](C(=O)N[C@@H](CC(N)=O)C(=O)N[C@@H](Cc1c[nH]c2ccccc12)C(=O)N[C@@H](CC(C)C)C(=O)N[C@@H](CC(C)C)C(=O)N[C@@H](C)C(=O)N[C@@H](CCC(N)=O)C(=O)N[C@@H](CO)C(=O)N1CCC[C@H]1C(=O)N[C@@H](CO)C(=O)N[C@@H](CO)C(=O)NCC(=O)N[C@@H](C)C(=O)N1CCC[C@H]1C(=O)N1CCC[C@H]1C(=O)N1CCC[C@H]1C(=O)N[C@@H](CO)C(N)=O)C(C)C) [Compound 131] | 0.0003 | 75.9
2 | [NMeY][Aib]EGTFISDYSIALDR[Aib]KQ[Aib]NFVNWLLAQSGGGGS-NH2 (not fully specified (residue 18)) [Compound 133] | 0.0005 | 1000
3 | [NMeY][Aib]EGTFISDYSIALDRK([G5-γGlu-C15DA])AQ[Aib]DFVNWLLAQSPSSGAPPPS-NH2 [Compound 132] | 0.0001 | 21.9
4 | [NMeY][Aib]EGTFISDYSI[Aib]KDR[Aib]AQ[Aib]NFVNWLLAQRGGGGS-NH2 (not fully specified (residue 14)) [Compound 134] | 0.0004 | 1000
5 | [NMeY][Aib]EGTFISDYSIALDR[Aib]HQ[Aib]K([AEEA-AEEA-γGlu-C15 diacid])FVNWLLAQK-OH (N-terminus assumed; SMILES CC[C@H](C)[C@H](NC(=O)[C@H](CO)NC(=O)[C@H](Cc1ccc(O)cc1)NC(=O)[C@H](CC(=O)O)NC(=O)[C@H](CO)NC(=O)[C@@H](NC(=O)[C@H](Cc1ccccc1)NC(=O)[C@@H](NC(=O)CNC(=O)[C@H](CCC(=O)O)NC(=O)C(C)(C)NC(=O)[C@H](Cc1ccc(O)cc1)NC)[C@@H](C)O)[C@@H](C)CC)C(=O)N[C@@H](C)C(=O)N[C@@H](CC(C)C)C(=O)N[C@@H](CC(=O)O)C(=O)N[C@@H](CCCNC(=N)N)C(=O)NC(C)(C)C(=O)N[C@@H](Cc1c[nH]cn1)C(=O)N[C@@H](CCC(N)=O)C(=O)NC(C)(C)C(=O)N[C@@H](CCCCNC(=O)COCCOCCNC(=O)COCCOCCNC(=O)CC[C@H](NC(=O)CCCCCCCCCCCCCC(=O)O)C(=O)O)C(=O)N[C@@H](Cc1ccccc1)C(=O)N[C@H](C(=O)N[C@@H](CC(N)=O)C(=O)N[C@@H](Cc1c[nH]c2ccccc12)C(=O)N[C@@H](CC(C)C)C(=O)N[C@@H](CC(C)C)C(=O)N[C@@H](C)C(=O)N[C@@H](CCC(N)=O)C(=O)N[C@@H](CCCCN)C(=O)O)C(C)C) [Compound 12] | 0.0002 | 363

Reference: patent US20220227830A1, “QD DOSING OF GIP RECEPTOR AGONIST PEPTIDE COMPOUNDS AND USES THEREOF” (Takeda Pharmaceutical Company Limited, priority 2020, published 2022)
